Experimental data taken from patent US20080193921, “Methods to identify agents that bind the flap-tip helix of RNA polymerase” (Wisconsin Alumni Research Foundation, published 2008).

Legend:
[1] = target: RNA polymerase core, wild-type (alpha2 beta beta' omega) (Escherichia coli) (UniProt P0A7Z4+P0A8V2+P0A8T7+P0A800); settings: [3H]UMP incorporation, -sigma70; SD 0.05
[2] = target: RNA polymerase sigma70 holoenzyme, beta F906A beta F906A (Escherichia coli) (UniProt P0A7Z4+P0A8V2+P0A8T7+P0A800+P00579); settings: +sigma70; SD 0.15
[3] = target: RNA polymerase beta I905N beta I905N (Escherichia coli) (UniProt P0A7Z4+P0A8V2+P0A8T7+P0A800); settings: -sigma70; SD 0.04
[4] = target: RNA polymerase sigma70 holoenzyme, beta I905N beta I905N (Escherichia coli) (UniProt P0A7Z4+P0A8V2+P0A8T7+P0A800+P00579); settings: +sigma70; SD 0.02
[5] = target: RNA polymerase sigma70 holoenzyme, beta delta(900-909) beta deletion 900-909 (Escherichia coli) (UniProt P0A7Z4+P0A8V2+P0A8T7+P0A800+P00579); settings: +sigma70; SD 0.05
[6] = target: RNA polymerase beta delta(900-909) beta deletion 900-909 (Escherichia coli) (UniProt P0A7Z4+P0A8V2+P0A8T7+P0A800); settings: -sigma70; SD 0.02
[7] = target: RNA polymerase beta L901Q beta L901Q (Escherichia coli) (UniProt P0A7Z4+P0A8V2+P0A8T7+P0A800); settings: -sigma70; SD 0.05
[8] = target: RNA polymerase beta L902P beta L902P (Escherichia coli) (UniProt P0A7Z4+P0A8V2+P0A8T7+P0A800); settings: -sigma70; SD 0.05
[9] = target: RNA polymerase beta L901R beta L901R (Escherichia coli) (UniProt P0A7Z4+P0A8V2+P0A8T7+P0A800); settings: -sigma70; SD 0.05
[10] = target: RNA polymerase sigma70 holoenzyme, wild-type (Escherichia coli) (UniProt P0A7Z4+P0A8V2+P0A8T7+P0A800+P00579); settings: +sigma70; SD 0.1
[11] = target: RNA polymerase sigma70 holoenzyme, beta L901Q beta L901Q (Escherichia coli) (UniProt P0A7Z4+P0A8V2+P0A8T7+P0A800+P00579); settings: +sigma70; SD 0.07
[12] = target: RNA polymerase sigma70 holoenzyme, beta L902P beta L902P (Escherichia coli) (UniProt P0A7Z4+P0A8V2+P0A8T7+P0A800+P00579); settings: +sigma70; SD 0.09
[13] = target: RNA polymerase beta F906A beta F906A (Escherichia coli) (UniProt P0A7Z4+P0A8V2+P0A8T7+P0A800); settings: -sigma70; SD 0.14
[14] = target: RNA polymerase sigma70 holoenzyme, beta L901R beta L901R (Escherichia coli) (UniProt P0A7Z4+P0A8V2+P0A8T7+P0A800+P00579); settings: +sigma70; SD 0.07
σ^70 lacking region 4 = σ^70 lacking region 4 (UniProt P00579); test: trypsin protection of the β flap-tip by σ70 lacking region 4; wild-type RNAP without σ: 9.2 ± 0.1
σ^70 lacking region 1 = σ^70 lacking region 1 (UniProt P00579); test: trypsin protection of the β flap-tip by σ70 lacking region 1; wild-type RNAP without σ: 9.2 ± 0.1
[15] = target: σ^70 lacking region 1 and region 4 (UniProt P00579); test: trypsin protection of the β flap-tip by σ70 lacking regions 1 and 4; wild-type RNAP without σ: 9.2 ± 0.1
[16] = target: T1, RNA polymerase core, wild-type (alpha2 beta beta' omega) (Escherichia coli, UniProt P0A7Z4;P0A8V2;P0A8T7;P0A800 P0A7Z4:1-329,P0A8V2:1-1342,P0A8T7:1-1407,P0A800:2-91); test: UV crosslinking (5-iodoU) in paused TEC; mapped to beta 904-908; settings: tags: N-terminal His6 on beta; beta' C-terminal intein-CBD removed by DTT; chain copies: 2,1,1,1; label: 32P; hairpin
Description: (§1) First, paused TECs containing either wild-type or βK909C mutant RNAPs and a wild-type pause hairpin loop derivatized with 5-iodoU and [α-³²P]CMP were prepared (FIG. 1A). The 5-iodoU crosslink was mapped by cleaving the crosslinked β subunit either to completion with trypsin or partially with 2-nitro-5-thiobenzoic-acid (NTCB), and by separating the cleavage products on SDS polyacrylamide gels (8-16% gradient; FIG. 6A). Trypsin cleavage was performed prior to disruption of the TEC, which results in cleavage within β only at R903 and K909 (Boruhkov et al., 1991). […] NTCB cleaves at Cys residues, which are present at seven positions in wild-type β and eight in βK909C.

[17] = target: RNA polymerase beta F906A (Escherichia coli, UniProt P0A7Z4;P0A8V2;P0A8T7;P0A800 P0A7Z4:1-329,P0A8V2:1-1342,P0A8T7:1-1407,P0A800:2-91, beta F906A); test: 4-thioU crosslink retained while 5-iodoU crosslink lost; hairpin-flap interaction not altered; settings: tags: N-terminal His6 on beta, beta' intein-CBD removed by DTT, chain copies: 2,1,1,1, label: 32P
[18] = target: RNA polymerase beta K909C (Escherichia coli, UniProt P0A7Z4;P0A8V2;P0A8T7;P0A800 P0A7Z4:1-329,P0A8V2:1-1342,P0A8T7:1-1407,P0A800:2-91, beta K909C); test: UV crosslinking in paused TEC; crosslink maps between 903 and 909; settings: tags: N-terminal His6 on beta; chain copies: 2,1,1,1; label: 32P; hairpin
Description: as §1

[19] = target: T1, RNA polymerase core, wild-type (alpha2 …); test: 5-iodoU UV crosslinking in paused TEC; settings: tags: N-terminal His6 on beta; beta' C-terminal intein-CBD removed by DTT; chain copies: 2,1,1,1; label: 32P; hairpin

Molecule: poly(dA dT)
- binding signal (relative to wild-type core) [1]: 1
- binding signal (relative to wild-type core) [2]: 2.1
- binding signal (relative to wild-type core) [3]: 1
- binding signal (relative to wild-type core) [4]: 1.3
- binding signal (relative to wild-type core) [5]: 0.9
- binding signal (relative to wild-type core) [6]: 0.95
- binding signal (relative to wild-type core) [7]: 1.2
- binding signal (relative to wild-type core) [8]: 1.2
- binding signal (relative to wild-type core) [9]: 1.2
- binding signal (relative to wild-type core) [10]: 2
- binding signal (relative to wild-type core) [11]: 1.4
- binding signal (relative to wild-type core) [12]: 1.5
- binding signal (relative to wild-type core) [13]: 1
- binding signal (relative to wild-type core) [14]: 1.5

Molecule: wild-type Escherichia coli RNA polymerase (core enzyme, α, β, β′ subunits)
- β cleavage rate + σ^70 (σ^70 lacking region 4): 0.011 s⁻¹
- β cleavage rate + σ^70 (σ^70 lacking region 1): 0.0062 s⁻¹
- β cleavage rate + σ^70 [15]: 0.011 s⁻¹

Molecule: CCUGACUAGUCUUUCAGG (ssRNA, 5-iodoU or 4-thioU in hairpin loop) [his pause RNA hairpin, wild-type]
- binding result [16]: binds
- binding result [17]: binds
- binding result [18]: binds

Molecule: CCUGCUUCGGCAGGCGAUGUGUGCUG (ssRNA, 5-iodoU in hairpin loop) [his pause RNA, tetraloop hairpin]
- binding result [19]: binds
